Target: the molecule itself
Test: size exclusion chromatography (HPLC, TSK G3000SW xL), self-association
Method: 0.02 ml of 5 to 20 μM protein was injected into a TSK G3000SW xL column (TosoHaas, Japan), and a phosphate buffered solution (50 mM sodium phosphate/150 mM NaCl, pH7.4) flowed at a rate of 0.7 ml/min. In this case, the chromatogram was obtained by measuring absorbance values at 280 nm.

| Protein | binding result |
| --- | --- |
| 3D8 VH protein (other, Isolated heavy chain variable domain of the anti-nucleic acid antibody 3D8, purified as a single domain; also called VH chain; VH domain) VH: AREVQLQQSGPELVKPGASVKMSCKASGYTFTSYVMHWVKQKPGQGLEWIGYINPYNDGTKYNEKFKGKATLTSDKSSSTAYMELSSLTSEDSAVYYCARGAYKRGYAMDYWGQGTSVTVSS | no binding (tested: 5 to 20 µM) |
| 3D8 VL protein (other, Isolated light chain variable domain of the anti-nucleic acid antibody 3D8, purified as a single domain and immobilized on a CM5 chip for SPR; also called VL chain; VL domain) VL: DLVMSQSPSSLAVSAGEKVTMSCKSSQSLFNSRTRKNYLAWYQQKPGQSPKLLIYWASTRESGVPDRFTGSGSGTDFTLTISSVQAEDLAVYYCKQSYYHMYTFGSGTKLEIK | no binding (tested: 5 to 20 µM) |
